Changes are numbered by the printed parent chain. Where two headings read alike, the source gives them in different places.
Assays:
[1] = molecular target: T1, human CD123 (IL-3Rα, interleukin-3 receptor alpha chain) (human, UniProt P26951 19-378); experiment: cell-based or functional assay
[2] = molecular target: T1, human CD123 (IL-3Rα, interleukin-3 …); experiment: flow cytometry on HNT-34 cells; EC50 of the binding curve taken as apparent Kd
[3] = molecular target: T1, human CD123 (IL-3Rα, interleukin-3 …); experiment: flow cytometry on TF-1 cells; EC50 of the binding curve taken as apparent Kd; TF-1 cells
Experimental: Binding affinity was tested by flow cytometry using purified antibodies. […] TF-1 cells (5×10⁴ cells per sample) were incubated with varying concentrations of murine antibodies in 200 μL FACS buffer (DMEM medium supplemented with 2% normal goat serum). The cells were then pelleted, washed twice, and incubated for 1 hr with 100 μL of phycoerythrin (PE)-conjugated goat anti-mouse IgG-antibody (Jackson Laboratory). The cells were pelleted again, washed with FACS buffer and resuspended in 200 μL of PBS containing 1% formaldehyde. Samples were acquired using a FACSCalibur flow cytometer with the HTS multiwell sampler, or a FACS array flow cytometer, and analyzed using CellQuest Pro (all from BD Biosciences, San Diego, US). For each sample the geomean fluorescence intensity for FL2 was calculated and plotted against the antibody concentration in a semi-log plot. A dose-response curve was generated by non-linear regression and the EC₅₀ value of each curve, which corresponds to the apparent dissociation constant (Kd) of each antibody, was calculated using GraphPad Prism v4 (GraphPad software, San Diego, Calif.).

[4] = molecular target: T1, human CD123 (IL-3Rα, interleukin-3 …); experiment: flow cytometry on HNT-34 cells, PE-conjugated goat anti-human secondary
[5] = molecular target: T1, human CD123 (IL-3Rα, interleukin-3 …); experiment: as above; remark: listed apart in the source
[6] = molecular target: T1, human CD123 (IL-3Rα, interleukin-3 …); experiment: cell-based or functional assay; remark: listed apart in the source

T1 sequence (P26951 19-378): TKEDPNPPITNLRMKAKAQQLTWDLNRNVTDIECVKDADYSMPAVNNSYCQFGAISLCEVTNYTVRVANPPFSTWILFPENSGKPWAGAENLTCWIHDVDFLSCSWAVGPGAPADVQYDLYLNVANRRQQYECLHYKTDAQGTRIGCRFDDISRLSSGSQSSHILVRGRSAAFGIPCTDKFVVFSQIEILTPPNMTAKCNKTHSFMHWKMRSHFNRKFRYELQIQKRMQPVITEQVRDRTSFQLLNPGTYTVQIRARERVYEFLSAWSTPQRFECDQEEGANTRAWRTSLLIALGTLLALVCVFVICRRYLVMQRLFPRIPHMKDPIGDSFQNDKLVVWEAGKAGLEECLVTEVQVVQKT

B1: muCD123-3 (antibody, mouse IgG1, kappa, V domains shown)
VH: EFQLQQSGPEVVKPGASVKMSCKASGYTFTSYVMHWMKQKPGQGLEWIGYIKPYKDGTKYNEKFKGKATLISDKPSSTAYMELSSLTSEDSAVYYCAREGENGYYDAMDYWGQGTSVTVSS
VL: DIQMTQSPSSLSASLGGKVTITCKASQDINKYIAWYQHKPGKGPRLLIHYTSTLQPGIPSRFSGSGSGRDYSFSISNLEPEDIATYYCLQYDNLLYTFGGGTKLELKR
notes: Murine monoclonal antibody purified from hybridoma supernatant; also called CD123Mu-3; CD123 Mu-3
[1]
  IC50, inhibition of IL-3 dependent proliferation of TF-1 cells: 0.26 nM
[2]
  Kd: 0.2 nM
[3]
  Kd: 0.3 nM

B2: huCD123-6Gv4.7-CysMab (antibody)
heavy chain: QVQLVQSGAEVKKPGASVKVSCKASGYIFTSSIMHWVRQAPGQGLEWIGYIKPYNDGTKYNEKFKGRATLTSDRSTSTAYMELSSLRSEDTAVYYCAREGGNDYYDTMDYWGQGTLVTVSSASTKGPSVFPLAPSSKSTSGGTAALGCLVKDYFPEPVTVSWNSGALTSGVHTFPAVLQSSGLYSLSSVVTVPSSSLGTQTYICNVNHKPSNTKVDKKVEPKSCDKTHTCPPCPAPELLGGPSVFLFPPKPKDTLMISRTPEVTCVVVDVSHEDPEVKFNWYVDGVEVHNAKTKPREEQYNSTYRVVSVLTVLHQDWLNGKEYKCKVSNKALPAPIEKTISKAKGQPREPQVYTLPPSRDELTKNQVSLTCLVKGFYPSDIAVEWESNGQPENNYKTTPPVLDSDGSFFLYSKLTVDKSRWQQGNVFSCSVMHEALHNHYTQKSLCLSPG
light chain: DIQMTQSPSSLSASVGDRVTITCRASQDINSYLSWFQQKPGKAPKTLIYRVNRLVDGVPSRFSGSGSGNDYTLTISSLQPEDFATYYCLQYDAFPYTFGQGTKVEIKR
notes: Differs from m21 (huCD123-6Gv4.7) by the engineered Cys in the heavy chain CH3 domain; it is the antibody part of m29 and m30
[4]
  EC50 (read off the curve): ~0.04 nM

B3: huCD123-6Gv4.7-CysMab-D4 (antibody)
heavy: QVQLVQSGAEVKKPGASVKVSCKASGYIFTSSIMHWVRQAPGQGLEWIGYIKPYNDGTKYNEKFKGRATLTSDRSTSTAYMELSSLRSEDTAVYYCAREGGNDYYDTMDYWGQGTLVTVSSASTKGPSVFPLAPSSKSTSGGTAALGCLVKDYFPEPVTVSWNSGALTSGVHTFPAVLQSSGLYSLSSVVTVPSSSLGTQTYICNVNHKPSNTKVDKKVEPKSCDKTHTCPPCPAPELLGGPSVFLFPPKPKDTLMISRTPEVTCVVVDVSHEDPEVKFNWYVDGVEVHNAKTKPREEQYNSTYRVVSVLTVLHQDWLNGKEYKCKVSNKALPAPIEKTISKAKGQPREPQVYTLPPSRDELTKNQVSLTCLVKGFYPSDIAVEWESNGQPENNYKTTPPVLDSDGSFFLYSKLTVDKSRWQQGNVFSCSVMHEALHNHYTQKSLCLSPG
light: DIQMTQSPSSLSASVGDRVTITCRASQDINSYLSWFQQKPGKAPKTLIYRVNRLVDGVPSRFSGSGSGNDYTLTISSLQPEDFATYYCLQYDAFPYTFGQGTKVEIKRTVAAPSVFIFPPSDEQLKSGTASVVCLLNNFYPREAKVQWKVDNALQSGNSQESVTEQDSKDSTYSLSSTLTLSKADYEKHKVYACEVTHQGLSSPVTKSFNRGEC
modifications: D4 linked through the engineered Cys in the heavy chain CH3 domain (5th to the last residue of SEQ ID NO: 54; EU/OU position 442); 1.8 mol D4/mol antibody
[4]
  EC50 (read off the curve): ~0.06 nM

B4: huCD123-6Gv4.7S3-SeriMab-sD1 (antibody, human IgG1, kappa)
heavy: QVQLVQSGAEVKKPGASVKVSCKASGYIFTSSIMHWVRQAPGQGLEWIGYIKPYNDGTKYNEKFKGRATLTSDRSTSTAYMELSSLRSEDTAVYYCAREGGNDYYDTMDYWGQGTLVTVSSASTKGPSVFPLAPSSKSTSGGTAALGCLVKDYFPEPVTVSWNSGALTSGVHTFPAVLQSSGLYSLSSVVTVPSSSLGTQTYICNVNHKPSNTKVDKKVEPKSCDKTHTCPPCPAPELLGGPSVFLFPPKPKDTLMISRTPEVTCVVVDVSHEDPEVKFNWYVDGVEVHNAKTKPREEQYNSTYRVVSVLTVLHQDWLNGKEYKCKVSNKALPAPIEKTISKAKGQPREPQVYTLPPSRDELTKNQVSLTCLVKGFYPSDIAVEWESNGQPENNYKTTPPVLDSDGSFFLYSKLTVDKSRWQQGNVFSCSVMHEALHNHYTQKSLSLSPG
light: B3 light with D1S
modifications: sulfonated D1 (sD1) linked through the oxidized N-terminal Ser on the light chain; average of 2.0 D1 per antibody
notes: also called huCD123-6-SeriMab-sD1
[5]
  EC50 (read off the curve): ~0.2 nM

B5: huCD123-6Gv4.7S3-sSPDB-D1 (antibody, human IgG1, kappa)
heavy: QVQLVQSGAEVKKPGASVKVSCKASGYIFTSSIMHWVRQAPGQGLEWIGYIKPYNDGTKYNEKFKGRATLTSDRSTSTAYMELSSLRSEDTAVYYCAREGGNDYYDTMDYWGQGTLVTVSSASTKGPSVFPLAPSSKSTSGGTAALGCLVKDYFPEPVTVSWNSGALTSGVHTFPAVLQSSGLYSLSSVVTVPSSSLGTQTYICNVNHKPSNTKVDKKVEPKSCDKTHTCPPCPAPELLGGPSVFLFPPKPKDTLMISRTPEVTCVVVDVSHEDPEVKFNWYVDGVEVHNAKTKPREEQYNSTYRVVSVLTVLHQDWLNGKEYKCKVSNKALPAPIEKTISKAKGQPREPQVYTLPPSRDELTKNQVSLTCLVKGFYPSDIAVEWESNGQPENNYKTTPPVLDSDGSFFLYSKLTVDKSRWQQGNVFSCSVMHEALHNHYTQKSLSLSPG
light: B3 light with D1S
modifications: D1 linked at Lys residues via a sulfonated SPDB linker; sites not stated; D1 linked at Lys residues via a sulfonated SPDB linker; average of 2.9 D1 per antibody, sites not stated
notes: also called huCD123Gv4.7S3-sulfo-SPDB-D1
[5]
  EC50 (read off the curve): ~0.1 nM

B6: huCD123-6Gv4.6-D2 (antibody, human IgG1, kappa)
heavy: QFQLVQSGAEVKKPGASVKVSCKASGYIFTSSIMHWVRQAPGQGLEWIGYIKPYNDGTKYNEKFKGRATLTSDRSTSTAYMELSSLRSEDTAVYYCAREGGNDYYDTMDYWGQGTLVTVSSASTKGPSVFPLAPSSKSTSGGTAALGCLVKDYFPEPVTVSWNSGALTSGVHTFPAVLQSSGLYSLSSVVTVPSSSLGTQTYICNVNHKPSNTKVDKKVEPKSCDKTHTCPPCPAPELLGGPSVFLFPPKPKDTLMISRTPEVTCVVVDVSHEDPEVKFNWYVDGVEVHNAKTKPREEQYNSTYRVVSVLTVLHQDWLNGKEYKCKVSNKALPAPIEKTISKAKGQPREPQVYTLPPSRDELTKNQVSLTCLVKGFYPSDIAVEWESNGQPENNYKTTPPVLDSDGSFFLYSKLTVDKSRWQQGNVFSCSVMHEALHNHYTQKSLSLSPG
light: B3 light
modifications: D2 linked at Lys residues; sites not stated; D2 linked at Lys residues; sites and drug load not stated
[1]
  IC50, in vitro cytotoxicity on EOL-1 cells: ~0.002 nM
  IC50, in vitro cytotoxicity on KOPN-8 cells: ~0.005 nM
  IC50, in vitro cytotoxicity on MOLM-1 cells: ~0.02 nM
  fold loss of cytotoxicity when CD123 is blocked by the unconjugated chCD123-6 antibody: ≥ 100 fold

B7: lysine-linked huCD123-6-IGN conjugate with D3 (antibody, human IgG1, kappa)
heavy: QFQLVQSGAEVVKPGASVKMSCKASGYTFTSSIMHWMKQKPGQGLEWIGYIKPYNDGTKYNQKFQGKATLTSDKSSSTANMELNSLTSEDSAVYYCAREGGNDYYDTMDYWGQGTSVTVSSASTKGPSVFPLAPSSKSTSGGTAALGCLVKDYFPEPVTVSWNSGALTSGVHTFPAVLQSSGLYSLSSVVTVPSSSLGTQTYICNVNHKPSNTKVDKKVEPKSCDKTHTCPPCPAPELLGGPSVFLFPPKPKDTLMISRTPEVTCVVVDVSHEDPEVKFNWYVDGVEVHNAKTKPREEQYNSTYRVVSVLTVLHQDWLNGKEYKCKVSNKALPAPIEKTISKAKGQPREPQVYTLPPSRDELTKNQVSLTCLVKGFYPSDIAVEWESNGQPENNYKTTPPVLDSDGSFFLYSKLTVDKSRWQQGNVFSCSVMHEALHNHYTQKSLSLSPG
light: B3 light with L11M, D17E, A43S, N69Q, T72S, Q79E, F83M, A84G, T85I, V104L
modifications: D3 linked at Lys residues; sites not stated; D3 linked at Lys residues; sites and drug load not given
[6]
  IC50, in vitro cytotoxicity on EOL-1 cells (AML): 0.0033 nM
  IC50, in vitro cytotoxicity on Granta519 cells (NHL): 0.0021 nM
  IC50, in vitro cytotoxicity on HNT-34 cells (AML): 0.0032 nM
  IC50, in vitro cytotoxicity on JM-1 cells (B-ALL): 0.17 nM
  IC50, in vitro cytotoxicity on KASUMI-3 cells (AML): 0.023 nM
  IC50, in vitro cytotoxicity on KCL-22 cells (CML): 0.95 nM
  IC50, in vitro cytotoxicity on KG-1 cells (AML): 6.6 nM
  IC50, in vitro cytotoxicity on KO52 cells (AML): 0.24 nM
  IC50, in vitro cytotoxicity on KOPN8 cells (B-ALL): 0.022 nM
  IC50, in vitro cytotoxicity on MOLM-1 cells (CML): 0.071 nM
  IC50, in vitro cytotoxicity on MOLM-13 cells (AML): 0.00046 nM
  IC50, in vitro cytotoxicity on MV4-11 cells (AML): 0.00054 nM
  IC50, in vitro cytotoxicity on OCI-AML2 cells (AML): 0.1 nM
  IC50, in vitro cytotoxicity on SHI-1 cells (AML): 0.029 nM
  IC50, in vitro cytotoxicity on THP1 cells (AML): 0.03 nM

B8: lysine-linked huCD123-6-IGN conjugate with D1 (antibody, human IgG1, kappa)
heavy: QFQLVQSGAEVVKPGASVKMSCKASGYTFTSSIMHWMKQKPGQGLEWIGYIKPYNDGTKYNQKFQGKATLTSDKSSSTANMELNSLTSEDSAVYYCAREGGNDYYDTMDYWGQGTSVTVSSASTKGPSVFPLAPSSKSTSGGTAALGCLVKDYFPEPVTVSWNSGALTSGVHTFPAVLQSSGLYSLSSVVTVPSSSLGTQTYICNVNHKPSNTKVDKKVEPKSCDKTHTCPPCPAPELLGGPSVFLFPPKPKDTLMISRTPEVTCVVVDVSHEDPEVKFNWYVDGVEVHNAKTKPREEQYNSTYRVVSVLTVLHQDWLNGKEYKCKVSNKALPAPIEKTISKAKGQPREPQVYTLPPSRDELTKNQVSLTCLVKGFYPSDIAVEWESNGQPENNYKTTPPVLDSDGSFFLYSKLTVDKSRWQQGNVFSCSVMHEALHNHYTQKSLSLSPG
light: B3 light with L11M, D17E, A43S, N69Q, T72S, Q79E, F83M, A84G, T85I, V104L
modifications: D1 linked at Lys residues; sites not stated; D1 linked at Lys residues; sites and drug load not given
[6]
  IC50, in vitro cytotoxicity on EOL-1 cells (AML): 0.0047 nM
  IC50, in vitro cytotoxicity on HNT-34 cells (AML): 0.0059 nM
  IC50, in vitro cytotoxicity on JM-1 cells (B-ALL): 0.41 nM
  IC50, in vitro cytotoxicity on KASUMI-3 cells (AML): 0.14 nM
  IC50, in vitro cytotoxicity on KCL-22 cells (CML): 0.29 nM
  IC50, in vitro cytotoxicity on KG-1 cells (AML): 4.1 nM
  IC50, in vitro cytotoxicity on KO52 cells (AML): 0.41 nM
  IC50, in vitro cytotoxicity on KOPN8 cells (B-ALL): 0.03 nM
  IC50, in vitro cytotoxicity on MOLM-1 cells (CML): 0.21 nM
  IC50, in vitro cytotoxicity on MOLM-13 cells (AML): 0.0012 nM
  IC50, in vitro cytotoxicity on MV4-11 cells (AML): 0.0013 nM
  IC50, in vitro cytotoxicity on OCI-AML2 cells (AML): 0.21 nM
  IC50, in vitro cytotoxicity on SHI-1 cells (AML): 0.032 nM
  IC50, in vitro cytotoxicity on THP1 cells (AML): 0.058 nM

Reference: patent US20180079819A1 (IMMUNOGEN, published 2018)
